The source of these data is PMC10340229, “EpoR Activation Stimulates Erythroid Precursor Proliferation by Inducing Phosphorylation of Tyrosine-88 of the CDK-Inhibitor p27^Kip1” (Cells, 2023).

Assay [1] has as its target T1, bacterially expressed recombinant p27 (full–length p27) (human, UniProt P46527 1-198).
T1 construct: p27^Kip1 (CDKN1B), human, full length; No tag is named for the full-length protein; also called purified p27; source: bacteria, purified by heat treatment (95 °C, ultracentrifugation)
The assay is described as follows: pull-down; GST fusion proteins bound on glutathione Sepharose beads incubated for 2 h at 4 °C with purified bacterial p27, p27 mutants or p27 fragments; extensive washing; bound p27 detected by Western blot. To be noted: both partners purified. In general terms: Immunoblotting shows a protein as a band on a membrane.

The target of assay [2] is T2, GST–hIC EpoR (273–508aa), cytoplasmic domain of human EpoR (human, UniProt P19235 273-508).
T2 construct: also called GST–EpoR; source: E. coli BL21, purified on glutathione Sepharose beads
T2 sequence (looked up): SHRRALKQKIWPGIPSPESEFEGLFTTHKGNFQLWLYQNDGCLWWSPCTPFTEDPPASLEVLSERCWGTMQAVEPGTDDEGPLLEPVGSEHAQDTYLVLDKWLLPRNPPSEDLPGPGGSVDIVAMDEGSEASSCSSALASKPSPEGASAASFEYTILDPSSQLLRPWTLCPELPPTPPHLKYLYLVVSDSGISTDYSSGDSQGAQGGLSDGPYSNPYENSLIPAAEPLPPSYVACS
Described as above. To be noted: both partners purified.

B1: GST–hIC EpoR N (273–433aa) (domain or fragment, human, UniProt P19235 273-433, looked up)
chain: SHRRALKQKIWPGIPSPESEFEGLFTTHKGNFQLWLYQNDGCLWWSPCTPFTEDPPASLEVLSERCWGTMQAVEPGTDDEGPLLEPVGSEHAQDTYLVLDKWLLPRNPPSEDLPGPGGSVDIVAMDEGSEASSCSSALASKPSPEGASAASFEYTILDPSS
notes: also called N–terminal truncated cytoplasmic domain of EpoR; source: E. coli BL21, purified on glutathione Sepharose beads
Take B1: in assay [1], the binding result is given as “binds”.

B2: p27 ΔSH3 (amino acids 94, 95, 96 PPK to GCA) (natural protein, human, UniProt P46527 1-198, looked up)
chain: MSNVRVSNGSPSLERMDARQAEHPKPSACRNLFGPVDHEELTRDLEKHCRDMEEASQRKWNFDFQNHKPLEGKYEWQEVEKGSLPEFYYRPPRGCAGACKVPAQESQDVSGSRPAAPLIGAPANSEDTHLVDPKTDPSDSQTGLAEQCAGIRKRPATDDSSTQNKRANRTEENVSDGSPNAGSVEQTPKKPGLRRRQT
notes: p27^Kip1 (CDKN1B), human, with point mutations in the proline-rich region; also called p27 ∆SH3; ΔSH3 mutant; source: bacteria, purified by heat treatment
On to B2, for which, in assay [2], the binding result is recorded as “binds”.

B3: p27 CK– (R30A, L32A, F62A, F64A) (natural protein, human, UniProt P46527 1-198, looked up)
chain: MSNVRVSNGSPSLERMDARQAEHPKPSACANAFGPVDHEELTRDLEKHCRDMEEASQRKWNADAQNHKPLEGKYEWQEVEKGSLPEFYYRPPRPPKGACKVPAQESQDVSGSRPAAPLIGAPANSEDTHLVDPKTDPSDSQTGLAEQCAGIRKRPATDDSSTQNKRANRTEENVSDGSPNAGSVEQTPKKPGLRRRQT
notes: p27^Kip1 (CDKN1B), human, with four point mutations; source: bacteria, purified by heat treatment
Take B3: the binding result in assay [2] is listed as “binds”.
